From paper PMC7593309, “Structural insights into Arabidopsis ethylene response factor 96 with an extended N-terminal binding to GCC box” come the findings set out here.

Data set [1] has as its target T1, AtERF96 WT (Arabidopsis thaliana, UniProt Q9LSX0 1-131). Briefly: EMSA; fEMSA: 30 mM HEPES pH 7.4, 62.5 mM NaCl, 5% glycerol, 30 min RT, gel at 4 C; FP: 30 mM HEPES pH 7.4, 250 mM NaCl, 10% glycerol, 10 nM probe final (20 nM mixed 1:1). Particulars: protein: recombinant; tags: N-terminal 6xHis (pET28a); label: 5'-fluorescein on forward strand; blunt. (In general: In EMSA bound probe runs differently from free probe, usually more slowly.)

The target of data set [2] is T1, AtERF96 WT. Briefly: fluorescence polarization; two-site fit (KdHi, KdLo); fEMSA: 30 mM HEPES pH 7.4, 62.5 mM NaCl, 5% glycerol, 30 min RT, gel at 4 C; FP: 30 mM HEPES pH 7.4, 250 mM NaCl, 10% glycerol, 10 nM probe final (20 nM mixed 1:1). Particulars: protein: recombinant; tags: N-terminal 6xHis (pET28a); label: 5'-fluorescein on forward strand. A general note: Fluorescence polarisation rises when a labelled molecule tumbles more slowly, as on binding a larger partner.

Data set [3] has as its target T1, AtERF96 WT. Briefly: X-ray crystallography; 1.76 A; fEMSA: 30 mM HEPES pH 7.4, 62.5 mM NaCl, 5% glycerol, 30 min RT, gel at 4 C; FP: 30 mM HEPES pH 7.4, 250 mM NaCl, 10% glycerol, 10 nM probe final (20 nM mixed 1:1). The settings on record: protein: recombinant; tags: N-terminal 6xHis (pET28a); blunt.

T1 sequence (Q9LSX0 whole entry): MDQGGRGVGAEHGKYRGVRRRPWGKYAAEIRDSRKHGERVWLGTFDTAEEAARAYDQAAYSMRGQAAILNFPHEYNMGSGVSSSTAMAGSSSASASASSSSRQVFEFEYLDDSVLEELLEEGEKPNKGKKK

B1: GCC11 probe (fEMSA) (dsDNA)
DNA 1: TAGCCGCCAGC
DNA 2: GCTGGCGGCTA
Regarding B1, in the data set with AtERF96 WT [1], the binding result is recorded as “binds”.

B2: GCC12 (dsDNA)
DNA 1: GTAGCCGCCAGC
DNA 2: GCTGGCGGCTAC
In the case of B2, the binding result with AtERF96 WT [2] is given as “binds”.

B3: GCC11 (crystal) (dsDNA)
DNA 1: TAGCCGCCAGC
DNA 2: GCTGGCGGCTA
On to B3, for which, in the data set with AtERF96 WT [3], the binding result is “binds”.
